According to PMC9755527:

Columns and labels:
CccR1-220 = CccR1-220 (Yersinia pseudotuberculosis, UniProt Q666X7 1-220); assay: ITC; conditions: protein: recombinant; tags: His6 (pET28a) or GST (pGEX6p-1)
CccR201-380 = CccR201-380 (Yersinia pseudotuberculosis, UniProt Q666X7 201-380); assay: ITC; conditions: protein: recombinant; tags: His6 (EMSA)
CccR = CccR (Yersinia pseudotuberculosis, UniProt Q666X7 1-380); assay: ITC; stoichiometry 1:2; conditions: protein: recombinant; tags: His6 (pET28a) or GST (pGEX6p-1); His6 stated for EMSA; chain copies: 2

B1: PcccR 100-bp ITC probe (dsDNA)
DNA 1: ATATTCAATCGGATGTATCGCCACGGATTTTTGAGATAATCATAAAGTTACTTTTGAGATAATCTACAAATGATAATCTGTTAACATAATGGCTATAAAG
DNA 2: CTTTATAGCCATTATGTTAACAGATTATCATTTGTAGATTATCTCAAAAGTAACTTTATGATTATCTCAAAAATCCGTGGCGATACATCCGATTGAATAT
- Kd (CccR1-220): 1.53 ± 0.13 mM
- Kd (CccR201-380): 6.13 ± 0.11 µM
- Kd (CccR): 2560 ± 120 nM
